In experiment [1] the test system is active β-Catenin. The experiment can be described thus: Nuclear translocation of β-Catenin (immunofluorescence staining; cell fractionation with western blot). The format is cell-based, human. On the procedure:
Cells (1×10^6) were seeded overnight and further allowed to grow in serum free conditions. Then cells were further treated with 20 μg/mL mEpAb2-6 or hEpAb2-6 or MT201 for 6 h or with 400 ng/mL LGK974 (MedChemExpress) for 9 h or combination as indicated. Samples were fractioned into cytosol and nuclear extracts using nuclear/cytosol fractionation kit (Biovision) according to the manufacturer's protocol. The fractions were then subjected to western blot analysis.
(§1) For western blotting, cells were extracted using radioimmunoprecipitation assay (RIPA) buffer [(0.01 M sodium phosphate, pH 7.2), 150 mM NaCl, 2 mM EDTA, 50 mM NaF, 1% Nonidet P-40, 1% sodium deoxycholate, and 0.1% SDS)] containing phosphatase inhibitor (Roche) and protease inhibitor (Roche) cocktail. Equal amounts of protein were separated by SDS-PAGE and then transferred to PVDF membranes. The membranes were blocked with 3% BSA in TBST (Blocking solution) and incubated with necessary primary antibodies in the blocking solution overnight at 4° C. Membranes were then incubated with HRP-conjugated secondary antibodies in the blocking solution for 1 h at room temperature, and protein expression were detected. Antibodies used: anti-α-tubulin (Sigma), anti-EpCAM (abeam), anti-Active β-Catenin (Millipore), anti-total β-Catenin (abeam), anti-Frizzled 6 (CST), anti-Frizzled 7 (Santa Cruz Biotech), anti-LRP5 (abcam), anti-Phospho-LRP5 (abcam), anti-Phospho-LRP6 (CST), anti-LRP6 (CST) and anti-EpEX antibody EpAb3-5 (Produced in house), anti-ADAM17 (abcam), anti-phopho-ADAM17 (abcam), anti-Presenilin2 (abcam), anti-phospho-Presenilin2 (S327) (abcam), anti-phospho-Presenilin2 (S330) (abcam) and anti-Axin2 (CST).
Glass slides were used in 24-well plates and coated with 0.1% gelatin. Further, 3×10^4 cells were seeded in serum free medium overnight. Cells were treated with 20 μg/mL EpAb2-6 for 6 h, or 400 ng/mL LGK974 (MedChemExpress) for 9 h or the combination. Cells were washed using ice-cold PBS and fixed with 4% paraformaldehyde for 15 min at RT and washed with ice-cold PBS. Further, cells were permeabilized using 0.1% triton-X in PBS for 20 min and subsequently washed with PBS. Cells were blocked with 3% BSA in PBS for 1 h at RT. Next, cells were treated with primary antibody anti-Active β-Catenin (Millipore) overnight. Then, cells were washed and treated with secondary antibody in 3% BSA containing PBS along with DAPI for 1 h at RT. Samples were then washed in PBS five times and mounted for microscopy. Nuclear β-Catenin intensities were calculated using IMARIS (Oxford Instruments) software.

Experiment [2] has as its system TCF. The experiment can be described thus: TCF activity (TOP-Flash TCF luciferase reporter). The format is cell-based, human. As to the method:
Cells were plated at 5×10^3 cells per well and grown overnight in 12-well plates. Then, cells were transiently transfected with TOP-Flash TCF reporter plasmid (Millipore) using poly-jet transfection reagent (SignaGen). At 48 h post transfection, cells were treated with 20 µg/mL Anti-EpCAM EpAb2-6 (Produced in house) or MT201 (Produced in house) for 6 h or 400 ng/mL LGK974 (MedChemExpress) for 9 h or the combination, as indicated. In addition, cells were treated with EpEX (Produced in house by Expi293 Expression System) or recombinant Wnt3A (R & D systems) or the combination for 8 h. Finally, cells were lysed, and the luciferase assay was performed.
(§2) The cells were seeded in 24-well plates (1×10^4 cells/well) and incubated at 37° C. for 24 h. The culture media were refreshed, and the cells were transfected with respective reporter plasmids (TCF reporter or Wnt receptor promoter reporter) by PolyJET (SignaGen). The transfected efficiency was normalized by co-transfected with pRL-TK (20 ng) as an internal control. Additional treatments were conducted as indicated. Firefly luciferase and Renilla luminescence were measured 48 h post-transfection using the Dual-Glo Luciferase Assay System (Promega), according to the manufacturer's recommendations.
(In a reporter assay the amount or activity of a reporter protein is the signal.)

The subject of experiment [3] is Wnt receptors (FZD6/7, LRP5/6). Briefly: Wnt receptor protein and mRNA expression (western blot, qPCR). The format is cell-based, human. To be noted: HT29 and HCT116 cells; overnight DAPT treatment. On the procedure:
as §1
Total RNA was extracted using TRI reagent and 5 μg of the total RNA was further reverse-transcribed using oligo (dT) primer with reverse transcriptase. Quantitative real time RT-PCR (qPCR) was performed on cDNA using the Light Cycler 480 SYBR Green-I Master kit and the LightCycler480 System. The gene expression levels of each sample were normalized to the expression levels of glyceraldehyde 3-phosphate dehydrogenase (GAPDH) or β-actin.
Background: A western blot detects proteins with antibodies after separation by electrophoresis.

Experiment [4] concerns Wnt receptor promoters (LRP5, LRP6, FZD6, FZD7). Briefly: Wnt receptor promoter luciferase reporter assay. The format is cell-based, human. To be noted: cells transfected with EpCAM plasmid; overnight DAPT treatment. As to the method: as §2
The putative promoter regions of LRP5 (−1187 to +200), LRP6 (−1543 to +55), FZD6 (−1385 to +205) and FZD7 (−1285 to +116) were cloned from HeLa genomic DNA and fused to pGL4.18 plasmid (Promega, USA). The genomic DNA was extracted using a Genomic DNA Isolation Kit (NovelGene, TW) according to the manufacturer's recommendations.

In experiment [5] the test system is HCT116, HT29 and SW620 cells. The experiment can be described thus: Tumorsphere assay. The format is cell-based, human. Conditions: summary statement; CRC cells; tumorsphere and colony formation. As to the method: Cells were seeded in ultra-low adherent 6-well plates (5×10^4 cells per well) or 24-well plates (1×10^3 cells per well) and maintained in DMEM/F-12 supplemented with B27. Further, cells were treated with 20 μg/mL mEpAb2-6, hEpAb2-6 or MT201 (Produced in house), or 400 ng/mL LGK974 (MedChemExpress) or the combination, by direct addition to the culture medium. The entire culture medium, including the treatment component, was changed in every other day. Cells were cultured for 10 days, and on 10th day, spheres were counted and photographed under the microscope.

The test system of experiment [6] is colon cancer cells (SW620, HCT116). Briefly: Annexin-V/PI apoptosis assay. The format is cell-based, human. To be noted: HCT116 cells; 20 μg/mL hEpAb2-6, mEpAb2-6 or MT201 for 24 hrs. As to the method: Cells were seeded in 24-well plate ([…] cells per well) overnight and then treated with 20 μg/mL mEpAb2-6, hEpAb2-6 or MT201, or […] LGK974 (MedChemExpress) or the combination for 24 hrs. Cell pellets were collected, and an apoptosis assay was performed using an Annexin-V/PI apoptosis kit (BD Biosciences). Results were read by flow cytometry analysis percentage apoptotic cells was calculated.

Experiment [7] shares this test system. To be noted: general description of other anti-EpCAM antibodies; cited from earlier work.
The target of experiment [8] is T1, EpCAM (Homo sapiens, UniProt P16422).
T1 construct: HEK293T cells were transfected with full length or EGF like-domain deletion mutant EpCAM-V5; V5; expressed in transfected cells; host or cells: HEK293T
T1 sequence (P16422 24-314): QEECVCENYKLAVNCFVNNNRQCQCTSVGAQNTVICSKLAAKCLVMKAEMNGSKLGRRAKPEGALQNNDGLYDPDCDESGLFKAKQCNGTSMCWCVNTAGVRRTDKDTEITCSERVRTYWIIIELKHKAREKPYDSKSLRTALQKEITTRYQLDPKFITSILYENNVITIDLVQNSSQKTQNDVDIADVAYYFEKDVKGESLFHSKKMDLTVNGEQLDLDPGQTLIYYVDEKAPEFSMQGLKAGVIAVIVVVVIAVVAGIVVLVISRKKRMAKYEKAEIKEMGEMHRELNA
Conditions: general description of other anti-EpCAM antibodies; cited from earlier work.

The mark [9] stands for this setting: wild-type HCT116 cells, DAPT with or without EpEX.

Entries after “also recorded” stand apart in the source; their conditions may differ.

For `C[C@H](NC(=O)Cc1cc(F)cc(F)c1)C(=O)N[C@H](C(=O)OC(C)(C)C)c1ccccc1` [DAPT, reference compound], in experiment [1] (setting [9]), the “nuclear translocation of β-Catenin” value was “decreased nuclear translocation of β-Catenin”. In addition, in experiment [2] (setting [9]), the TCF activity entry is listed as “marginally decreased TCF activity”. Besides, the “expression of Wnt receptors” value in experiment [3] is reported as “reduced expression of Wnt receptors”. Moreover, in experiment [4], the “Wnt receptor promoter activity” value is reported as “almost completely blocked the effect”.

B1: hEpAb2-6: humanized form of EpAb2-6 (antibody, V domains shown)
VH: VKLQESGPELKKPGETVKISCKASGYTFTDYSMHWVKQAPGKGLKWMGWINTETGEPTYADDFKGRFAFSLETSASTAYLQINNLKNEDTATYFCARTAVYWGQGTTVTVSS
VL: DIQMTQSPSSLSASLGERVSLTCRASQEISVSLSWLQQEPDGTIKRLIYATSTLDSGVPKRFSGSRSGSDYSLTISSLESEDFVDYYCLQYASYPWTFGGGTKLEIKRADAAPTVS
As to B1, the “nuclear translocation of β-Catenin” value in experiment [1] (HT29 cells, 20 μg/mL hEpAb2-6 or MT201 for 6 h) is reported as “retained β-Catenin inhibitory activity; also recorded: attenuates nuclear translocation of β-Catenin”. Besides, the TCF activity result in experiment [2] (HT29 cells, 20 µg/mL antibody for 6 h) is recorded as “retained β-Catenin inhibitory activity thus related TCF activity”. The cancer stemness properties entry in experiment [5] is given as “limits cancer stemness”. Moreover, in experiment [6], the induction of apoptosis result is reported as “induces apoptosis”.

B2: edrecolomab: other anti-EpCAM antibody targeting only the EGF I domain (antibody, chains of the INN, looked up, V domains shown)
VH: QVQLQQSGAELVRPGTSVKVSCKASGYAFTNYLIEWVKQRPGQGLEWIGVINPGSGGTNYNEKFKGKATLTADKSSSTAYMQLSSLTSDDSAVYFCARDGPWFAYWGQGTLVTVSA
VL: NIVMTQSPKSMSMSVGERVTLTCKASENVVTYVSWYQQKPEQSPKLLIYGASNRYTGVPDRFTGSGSATDFTLTISSVQAEDLADYHCGQGYSYPYTFGGGTKLEIK
With B2, the “inducing apoptosis of cancer cells” value in experiment [7] was “failing”. Moreover, the EpCAM domains bound entry in experiment [8] was “target only the well-described EGF I domain of EpCAM; also recorded: binding to domain I only”.
